Consider 1 substance from patent publication US20050287527.

As to human α-thrombin, the “proteolytic cleavage of the peptide by thrombin” value in the data set with GPNPRHL, with GFNPRHL, in the data set on GVDPRHL, in the data set on GLDPRHL and in the data set on GFSARHL was “proteolytically cleaved after the arginine residues in the presence of the human thrombin” throughout.
